Paper PMC5389473 (Nucleic Acids Research, 2016)
Ends that are not written are not given here. * marks the point of attachment. FITC = O=C1OC2(c3ccc(O)cc3Oc3cc(O)ccc32)c2ccc(NC(=S)*)cc21

Tests used:
Assay in all cases: fluorescence polarisation; fluorescein-labelled pol β NLS peptide against the concentration of the Impα construct; apparent dissociation constants; as in ref. 56
Settings in all cases: both partners purified
[1] = biological target: human Importin α5, residues 66–512 (hImpα5ΔIBB) (human, UniProt P52294 66-512)
Chain of human Importin α5, residues 66–512 (hImpα5ΔIBB) (P52294 66-512, stated change not applied): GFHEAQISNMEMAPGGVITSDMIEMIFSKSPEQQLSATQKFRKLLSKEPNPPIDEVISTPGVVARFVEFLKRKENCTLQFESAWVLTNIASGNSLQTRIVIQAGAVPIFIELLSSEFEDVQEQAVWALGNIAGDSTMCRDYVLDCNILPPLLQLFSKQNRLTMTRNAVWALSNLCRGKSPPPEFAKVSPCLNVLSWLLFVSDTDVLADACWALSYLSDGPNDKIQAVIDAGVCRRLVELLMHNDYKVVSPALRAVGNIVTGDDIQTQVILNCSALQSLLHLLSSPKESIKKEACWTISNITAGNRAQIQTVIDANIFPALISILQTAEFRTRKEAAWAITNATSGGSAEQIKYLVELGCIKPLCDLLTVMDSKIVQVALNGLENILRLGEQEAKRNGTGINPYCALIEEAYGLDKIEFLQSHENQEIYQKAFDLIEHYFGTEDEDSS

[2] = biological target: T1, full-length murine Importin α1 (mImpα1) (mouse, UniProt P52293 1-529)
[3] = biological target: T2, murine Importin α1 with the Importin β binding domain deleted (mImpα1ΔIBB) (mouse, UniProt P52293 70-529)
[4] = biological target: T1, full-length murine Importin α1 (mImpα1); remark: listed apart in the source
[5] = biological target: T2, murine Importin α1 with the Importin β …; remark: listed apart in the source

Kd [1]: 0.72 ± 0.03 µM
Kd [2]: 61.8 ± 1.7 µM
Kd [3]: 3.6 ± 0.4 µM
Kd [4]: 54.3 µM
Kd [5]: 2 µM
B1: fluorescein-labeled pol β NLS peptide SKRKAPQETLNGG-Lys(FITC) (peptide)
peptide: SKRKAPQETLNGGK(FITC)
